Laboratory results reported in patent US10647739B2, “Flavonoids O-A-glucosylated on the B cycle, method for the production thereof and uses” (Institut National de la Recherche Agronomique, priority 2014, dated 2020).

B1: R446Q: ASNp amylosucrase single mutant, SEQ ID NO: 8 (protein, listed as Neisseria polysaccharea)
chain: SPNSQYLKTRILDIYTPEQRAGIEKSEDWRQFSRRMDTHFPKLMNELDSVYGNNEALLPMLEMLLAQAWQSYSQRNSSLKDIDIARENNPDWILSNKQVGGVCYVDLFAGDLKGLKDKIPYFQELGLTYLHLMPLFKCPEGKSDGGYAVSSYRDVNPALGTIGDLREVIAALHEAGISAVVDFIFNHTSNEHEWAQRCAAGDPLFDNFYYIFPDRRMPDQYDRTLREIFPDQHPGGFSQLEDGRWVWTTFNSFQWDLNYSNPWVFRAMAGEMLFLANLGVDILRMDAVAFIWKQMGTSCENLPQAHALIRAFNAVMRIAAPAVFFKSEAIVHPDQVVQYIGQDECQIGYNPLQMALLWNTLATREVNLLHQALTYRHNLPEHTAWVNYVRSHDDIGWTFADEDAAYLGISGYDHRQFLNRFFVNRFDGSFARGVPFQYNPSTGDCQVSGTAAALVGLAQDDPHAVDRIKLLYSIALSTGGLPLIYLGDEVGTLNDDDWSQDSNKSDDSRWAHRPRYNEALYAQRNDPSTAAGQIYQDLRHMIAVRQSNPRFDGGRLVTFNTNNKHIIGYIRNNALLAFGNFSEYPQTVTAHTLQAMPFKAHDLIGGKTVSLNQDLTLQPYQVMWLEIA
B2: V331K: ASNp amylosucrase single mutant (protein, UniProt Q9ZEU2 1-636, looked up, variant V331K)
Amylosucrase: MLTPTQQVGLILQYLKTRILDIYTPEQRAGIEKSEDWRQFSRRMDTHFPKLMNELDSVYGNNEALLPMLEMLLAQAWQSYSQRNSSLKDIDIARENNPDWILSNKQVGGVCYVDLFAGDLKGLKDKIPYFQELGLTYLHLMPLFKCPEGKSDGGYAVSSYRDVNPALGTIGDLREVIAALHEAGISAVVDFIFNHTSNEHEWAQRCAAGDPLFDNFYYIFPDRRMPDQYDRTLREIFPDQHPGGFSQLEDGRWVWTTFNSFQWDLNYSNPWVFRAMAGEMLFLANLGVDILRMDAVAFIWKQMGTSCENLPQAHALIRAFNAVMRIAAPAKFFKSEAIVHPDQVVQYIGQDECQIGYNPLQMALLWNTLATREVNLLHQALTYRHNLPEHTAWVNYVRSHDDIGWTFADEDAAYLGISGYDHRQFLNRFFVNRFDGSFARGVPFQYNPSTGDCRVSGTAAALVGLAQDDPHAVDRIKLLYSIALSTGGLPLIYLGDEVGTLNDDDWSQDSNKSDDSRWAHRPRYNEALYAQRNDPSTAAGQIYQGLRHMIAVRQSNPRFDGGRLVTFNTNNKHIIGYIRNNALLAFGNFSEYPQTVTAHTLQAMPFKAHDLIGGKTVSLNQDLTLQPYQVMWLEIA

Key:
[1] = apigenin glucosylation acceptor reaction with recombinant glucansucrases (microplate screening); type: biochemical; details: sucrose 146 mM, apigenin 2.5 mM, 3% DMSO, 30° C., 24 h; HPLC-UV 340 nm peak areas
Summary of the method: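 Centrifuged […] lysates of recombinant glucansucrases incubated with 146 mM sucrose and 2.5 mM apigenin (3% v/v DMSO final) at 30° C, 700 rpm for 24 h, then heat-denatured. Glucosylation efficiency (%) = glucosylated peak areas over glucosylated plus residual aglycone areas, from reverse-phase HPLC-UV at 340 nm.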

[2] = naringenin glucosylation acceptor reaction with recombinant glucansucrases (microplate screening); type: biochemical; details: sucrose 146 mM, naringenin 5 mM, 3% DMSO, 30° C., 24 h; HPLC-UV 340 nm peak areas
Summary of the method: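 Centrifuged recombinant glucansucrase lysates incubated 24 h at 30° C., 700 rpm, with 146 mM sucrose and 5 mM naringenin (3% v/v DMSO final), then heat-denatured at 95° C. Products separated by reverse-phase HPLC with UV at 340 nm; efficiency is glucosylated-flavonoid peak area as % of glucosylated plus residual aglycone areas.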

Row | Molecule | apigenin glucosylation efficiency [1] [%] | naringenin glucosylation efficiency [2] [%]
1 | B1 | 1.9 | 0.0
2 | B2 | 0.2 | 0.0
